In article PMC12629983, “Nanobody-based recombinant antivenom for cobra, mamba and rinkhals bites” (Nature, 2025):

Key:
Details in all cases: both partners purified
[1] = target: protein of Hemachatus haemachatus PRINTED:77012629983_21 (Hemachatus haemachatus, fraction Hh9 …); assay: BLI; […] (0.5 µg/ml) […], pH 7.2; 600 s association, 600 s dissociation; global 1:1 fit
[2] = target: T1, Cardiotoxin (P01468) from N. pallida (Naja pallida, UniProt P01468); assay: crystal structure
T1 construct: also called cardiotoxin (UniProt: P01468); source: bought: Latoxan (lyophilized)
T1 sequence (P01468 whole entry, looked up, one chain of several): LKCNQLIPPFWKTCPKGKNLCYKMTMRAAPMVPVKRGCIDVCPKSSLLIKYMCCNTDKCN

CTx-10 = CTx-10 (Naja pallida (Kenya, L1321)); Latoxan …, UniProt P01468, biotin (EZ-Link NHS-PEG4-Biotin, amine coupling)); assay: BLI; […], pH 7.2; 600 s association, 600 s dissociation; global 1:1 fit
Sequence of CTx-10 (Naja pallida (Kenya, L1321)); Latoxan …, UniProt P01468, biotin (EZ-Link NHS-PEG4-Biotin, amine coupling)) (P01468 whole entry, looked up): as the sequence (P01468 whole entry, looked up, one chain of several) above

Og XI-1 = target: T2, Og XI-1 (Dendroaspis jamesoni venom (L1308); …); assay: BLI; […] (0.5 µg/ml) […], pH 7.2; 600 s association, 600 s dissociation; global 1:1 fit
T2 construct: source: venom fraction isolated from whole venom (Latoxan) by RP-HPLC; biotinylated
T2 chain: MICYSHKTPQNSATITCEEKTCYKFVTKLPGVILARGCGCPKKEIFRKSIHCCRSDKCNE

Og XI-2 = target: T3, Og XI-2 (Dendroaspis viridis, UniProt P01405); assay: as above
T3 construct: source: venom fraction isolated from whole venom (Latoxan) by RP-HPLC; biotinylated

KUN-2 [3] = target: T4, KUN-2 (Dendroaspis polylepis (L1309), fraction …, biotin (EZ-Link NHS-PEG4-Biotin, amine coupling)); assay: as above
T4 construct: source: venom fraction isolated from whole venom (Latoxan) by RP-HPLC; biotinylated
T4 chain: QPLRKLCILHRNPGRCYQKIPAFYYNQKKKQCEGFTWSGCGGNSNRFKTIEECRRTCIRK

KUN-1 = target: T5, KUN-1 (Dendroaspis jamesoni (L1308, Cameroon), …, biotin (EZ-Link NHS-PEG4-Biotin, amine coupling)); assay: as above
T5 construct: source: venom fraction isolated from whole venom (Latoxan) by RP-HPLC; biotinylated
T5 chain: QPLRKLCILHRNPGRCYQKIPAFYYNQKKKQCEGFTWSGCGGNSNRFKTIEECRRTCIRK

KUN-2 [4] = target: KUN-2 (Dendroaspis polylepis (L1309), UniProt P00979, biotin (EZ-Link NHS-PEG4-Biotin, amine coupling)); assay: BLI; […], pH 7.2; 600 s association, 600 s dissociation; global 1:1 fit
PLA2-3 = target: T6, PLA2-3 (Naja nubiae (Egypt, L1342), fraction …, UniProt P14556); assay: cryo-EM structure
T6 construct: also called basic phospholipase A2 nigexine (P14556)
T6 sequence (P14556 whole entry): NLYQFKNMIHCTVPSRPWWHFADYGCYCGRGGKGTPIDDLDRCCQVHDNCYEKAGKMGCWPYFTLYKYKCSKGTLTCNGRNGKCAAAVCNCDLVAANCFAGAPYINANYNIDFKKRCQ

lNTx-7 = target: T7, lNTx-7 (Naja kaouthia (Latoxan L8114), biotin (EZ-Link NHS-PEG4-Biotin, amine coupling)); assay: BLI; […] (0.5 µg/ml) […], pH 7.2; 600 s association, 600 s dissociation; global 1:1 fit
T7 chain: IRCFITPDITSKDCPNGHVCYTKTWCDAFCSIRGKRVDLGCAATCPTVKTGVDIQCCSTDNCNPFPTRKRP

lNTx-3 = target: T8, lNTx-3 (Dendroaspis polylepis (L1309), fraction …, biotin (EZ-Link NHS-PEG4-Biotin, amine coupling)); assay: as above
T8 chain: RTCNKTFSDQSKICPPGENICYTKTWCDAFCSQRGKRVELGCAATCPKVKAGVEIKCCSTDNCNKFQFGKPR

sNTx-7 = target: T9, sNTx-7 (Naja annulifera (L1314), fraction Nan3, biotin (EZ-Link NHS-PEG4-Biotin, amine coupling)); assay: as above
T9 chain: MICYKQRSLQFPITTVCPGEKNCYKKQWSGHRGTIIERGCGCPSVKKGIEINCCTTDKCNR

sNTx-1 = target: T10, sNTx-1 (Dendroaspis jamesoni (L1308, Cameroon), …); assay: as above
T10 chain: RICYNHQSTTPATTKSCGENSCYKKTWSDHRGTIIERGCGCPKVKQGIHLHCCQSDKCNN

sNTx-5 = target: T11, sNTx-5 (Hemachatus haemachatus (L1311), …, biotin (EZ-Link NHS-PEG4-Biotin, amine coupling)); assay: as above
T11 chain: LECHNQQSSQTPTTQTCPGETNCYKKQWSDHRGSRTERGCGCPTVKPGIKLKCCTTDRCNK

sNTx-6 = target: T12, sNTx-6 (Naja melanoleuca (L1318), fraction Nm3, biotin (EZ-Link NHS-PEG4-Biotin, amine coupling)); assay: as above
T12 chain: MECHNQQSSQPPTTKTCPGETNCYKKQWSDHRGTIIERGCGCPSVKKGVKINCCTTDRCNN

[5] = target: T13, α-short-chain neurotoxin (P01426) from N. pallida (Naja pallida, UniProt P01426); assay: crystal structure
T13 construct: also called short neurotoxin 1 (P01426); source: bought: Latoxan (lyophilized)
T13 sequence (P01426 whole entry, one chain of several): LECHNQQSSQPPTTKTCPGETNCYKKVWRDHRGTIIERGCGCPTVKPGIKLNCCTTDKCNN

B1:  (VHH)
VHH: QVQLQESGGGLVQAGGSLRLSCAASGRTFSSYAMAWFRQAPGKEREFVASISWNGDSTYYADSVKGRFTISGDNAKNTWYLQMKSLKPEDTAVYYCNTEDEGSGTYYEWGQGTQVTVSS
notes: also called VHH1; source: E. coli BL21 (DE3), purified (Ni resin)
B1: no binding (tested: 480 nM) [1].

B2:  (VHH)
VHH: QVQLQESGGGLVQAGGSLRLSCAASGRTFSSYAMAWFRQAPGKEREFVASISWNGDSTYYADSVKGRFTISGDNAKNTWYLQMKSLKPEDTAVYYCNTEDEGSGTYYEWGQGTQVTVSS
notes: also called anti-CTx VHH; source: E. coli BL21 (DE3), purified (Ni-NTA)
B2: binds [2]; binds (CTx-10).

B3: VHH15 a-Og XI (VHH)
VHH: QVQLQESGGGAVPAGGSLTLSCAASGRTLSDYTMGWFRQAPGKEREIVGAISWNDGYTYYDDSVKGRFTISRDNAKNTMYLQMNSLKPEDTAVYYCAAQAPEMVRSGNFGSWGPGTQVTVSS
notes: source: E. coli BL21 (DE3), purified (Ni resin)
Binder B3 has a Kd (Og XI-1) of 2.19 nM, a koff (Og XI-1) of 0.000161 s⁻¹ and a kon (Og XI-1) of 73400 M⁻¹ s⁻¹. It also gave a Kd (Og XI-2) of 2.16 nM, a koff (Og XI-2) of 0.000122 s⁻¹ and a kon (Og XI-2) of 56700 M⁻¹ s⁻¹.

B4: VHH17 a-KUN (VHH)
VHH: QVQLQESGGGLVQPGGSLRLSCITSGSNFDDLSVGWFRQAPGKEREGVSCFSSSDGSTYYVDSVKGRFTMSRDNAKNTVYLQMNNLKPEDTAVYYCTADGFPYPSETMCSIPGGPDSVAWGQGTQVTVSS
notes: as for B3
In the case of B4, the Kd (KUN-2 [3]) is reported as under 1 pM, the koff (KUN-2 [3]) is reported as under 1e-07 s⁻¹ and the kon (KUN-2 [3]) is reported as 86900 M⁻¹ s⁻¹. For the same binder, the Kd (KUN-1) was 0.0405 nM, the koff (KUN-1) was 8.43e-07 s⁻¹ and the kon (KUN-1) was 20800 M⁻¹ s⁻¹.

B5: VHH17 a-KUN (VHH)
VHH: QVQLQESGGGLVQPGGSLRLSCITSGSNFDDLSVGWFRQAPGKEREGVSCFSSSDGSTYYVDSVKGRFTMSRDNAKNTVYLQMNNLKPEDTAVYYCTADGFPYPSETMCSIPGGPDSVAWGQGTQVTVSS
notes: source: E. coli BL21 (DE3), purified (Ni-NTA)
B5: binds (KUN-2 [4]).

B6: VHH20 a-PLA2 (VHH)
VHH: QVQLQESGGGLAQAGGSLRLSCAASGLAFSNYSMGWARQAPGKEREFVAAISWSHQPTYYADSVKGRFTISRDNAKNTLYLQMNSLKPEDTAVYYCAADSRPNSYRLGGPGNYWGQGTQVTVSS
notes: also called anti-PLA2 VHH
B6: binds (PLA2-3).

B7: VHH9 a-lNTx (VHH)
VHH: QVQLQESGGGLVQPGGSLRLSCTASGSIFSTVNTMGWYRQAPGKQRELVAAITGGGSTNYADSVKGRFTISRDNVENTVHLRMNALKPEDTAVYYCNFQEYCSAYGCYELPHDYWGQGTQVTVSS
notes: as for B3
For B7, the Kd (lNTx-7) was 0.753 nM, the koff (lNTx-7) was 2.71e-05 s⁻¹ and the kon (lNTx-7) was 36000 M⁻¹ s⁻¹. It also gave a Kd (lNTx-3) of 1.18 nM, a koff (lNTx-3) of 0.000203 s⁻¹ and a kon (lNTx-3) of 173000 M⁻¹ s⁻¹.

B8: VHH5 a-sNTx (VHH)
VHH: QVQLQESGGGLVRPGGSLRLSCAVSGVSESIFANYVVGWFRQQDSGTGRDLVAQSSSDDEYNHVSGSVKGRFTISRDNAKNTVSLQMDNLKPEDTAIYICAAAIGPGDNYIYWGQGTQVTVSS
notes: as for B3
In the case of B8, the Kd (sNTx-7) is reported as 0.388 nM, the koff (sNTx-7) is reported as 1.44e-05 s⁻¹ and the kon (sNTx-7) is reported as 37100 M⁻¹ s⁻¹. It also gave a Kd (sNTx-1) of 1.9 nM, a koff (sNTx-1) of 4.72e-05 s⁻¹ and a kon (sNTx-1) of 24900 M⁻¹ s⁻¹. The Kd (sNTx-5) was 16.9 nM, the koff (sNTx-5) was 0.000631 s⁻¹ and the kon (sNTx-5) was 37400 M⁻¹ s⁻¹. For the same binder, the Kd (sNTx-6) was 5.46 nM, the koff (sNTx-6) was 0.000163 s⁻¹ and the kon (sNTx-6) was 29800 M⁻¹ s⁻¹.

B9: VHH5 a-sNTx (VHH)
VHH: QVQLQESGGGLVRPGGSLRLSCAVSGVSESIFANYVVGWFRQQDSGTGRDLVAQSSSDDEYNHVSGSVKGRFTISRDNAKNTVSLQMDNLKPEDTAIYICAAAIGPGDNYIYWGQGTQVTVSS
notes: also called anti-sNTx VHH; source: E. coli BL21 (DE3), purified (Ni-NTA)
B9: binds [5].

B10:  (VHH)
VHH: QVQLQESGGGLVQAGGSLRLSCAAPGFTFDNYAIGWFRQAPGKEREAVSMIDVNDGDTYYADSVKGRFATSIDNARITAYLQMNSLKPEDTAVYYCAAGEQGGIETEDDYGMDYYGKGTQVTVSS
notes: also called VHH4; source: E. coli BL21 (DE3), purified (Ni resin)
B10: no binding (tested: 480 nM) [1].
